In one assay the target is native TSLP (human, UniProt Q969D9 29-159). Put plainly: cell-based or functional assay.
In assay [1] the target is T1, Fc-tagged human TSLP antigen (huTSLP-Fc) (human, biotin-labeled in the blocking assays). Put plainly: cell-based or functional assay.
Assay [2] has as its target T1, Fc-tagged human TSLP antigen (huTSLP-Fc). Put plainly: competition FACS: biotin-TSLP-Fc binding to CHOK1-TSLPR/IL-7R cells.
The target is the same in assay [3]. Briefly: competition ELISA: biotin-huTSLP-Fc binding to coated human-TSLPR-Fc-ECD.
The target in assay [4] is T2, His-tagged cynomolgus monkey TSLP antigen (cynoTSLP-His) (cynomolgus monkey).
T2 construct: whole entry named
T2 chain: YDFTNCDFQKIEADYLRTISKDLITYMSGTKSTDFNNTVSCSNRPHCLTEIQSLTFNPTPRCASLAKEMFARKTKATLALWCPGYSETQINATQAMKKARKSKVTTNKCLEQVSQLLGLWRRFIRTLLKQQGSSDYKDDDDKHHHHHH
Put plainly: Biacore T200, antibody captured on Protein A chip, antigen in flow, 1:1 Langmuir. A general note: Surface plasmon resonance follows binding to a sensor surface in real time, without labels.

Assay [5] concerns the target T3, His-tagged human TSLP antigen (huTSLP-his) (human).
T3 construct: Secreted from HEK293E and purified on nickel; whole entry named; also called Human TSLP-his
Described as above.

Assay [6] deals with T1, Fc-tagged human TSLP antigen (huTSLP-Fc). Briefly: competition ELISA: blocks TSLP binding to TSLP receptor. (In an ELISA, binding on a coated surface is turned into a signal by an enzyme label.)
For assay [7], the target named is T3, His-tagged human TSLP antigen …. Put plainly: ELISA, coated huTSLP-his.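 Also: binding of antibodies to plate-bound TSLP read as absorbance at 450 nm after TMB colour development, EC50 derived from binding curves.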

Positions count from the first letter of the chain named. In names and notes the source's numbering stands.

As usually defined, the IC50 is the point on the concentration scale where inhibition reaches its midpoint. For orientation: Kd means a measure of binding affinity in units of concentration. In general, EC50 refers to the midpoint of the concentration-response curve.

B1: hu119-30 (antibody, human IgG1, kappa, V domains shown)
VH: EAQLVQSGAEVKKPGSSVKVSCKASGFTFSTYNMHWVRQAPGQGLEWIGAIYPGNGETSYNQKFKDRATLTVDKSTRTAYMELSSLRSEDTAVYYCAREDDYGEGYFDVWGQGTTVTVSS
VL: DIVLTQSPATLSLSPGERATLSCRASESVDSSGLSFMHWYQQKPGQPPRLLLYRASNLGSGIPARFSGSGSGTDFTLTISSLEPEDFAVYYCQQINTDPLTFGQGTKLEIKR
notes: IgG1-YTE, kappa; also called hu119VH8 + hu119VL6-N31S
As to B1, the “IC50 (nM), inhibition of native TSLP-induced proliferation of BaF3-TLSPR/IL-7R cells” value with native TSLP was 1.53 nM. Moreover, the “IC50 (nM), inhibition of TSLP-induced proliferation of BaF3 cells overexpressing TSLPR/IL-7R” value in assay [1] was determined as 0.43 nM. Also, the concentration for half-maximal inhibition (IC50) is 0.137 nM in assay [2] and 0.519 nM in assay [3]. The Kd in assay [4] is 1.95 nM; in assay [5], 0.005 nM.

B2: hu199-06 (antibody, human IgG1, kappa, V domains shown)
VH: EVQLVQSGAEVKKPGASVKVSCKASGYTFTTYWMHWVRQAPGQGLEWMGMIDPSDSETTLIQKFKDRVTMTVDKSTSTAYMELSSLRSEDTAVYYCARTLDGYYDYWGQGTTVTVSS
VL: DIQMTQSPSSLSASVGDRVTITCRASENIYSYLAWYQQKPGKSPQLLVYFAKTLAEGVPSRFSGSVSGTQFTLTISSLQPEDFATYYCQHHYGTPWTFGGGTKVEIKR
notes: IgG1-YTE, kappa
B2 registered an IC50 in assay [6] of 0.381 nM.

B3: Ch199 (antibody, human IgG1, kappa, V domains shown)
VH: QVQLQQSGPQLVRPGASVKISCKASGYSFTTYWMHWVKQRPGQGLEWIGMIDPSDSETTLIQKFKDKATLTVDKSSSTAYMQLSSPTSEDSAVYYCARTLDGYYDYWGQGTTLTVSS
VL: B2 VL with S9A, D17E, R18T, P40Q, T72S, T74K, S76N, A84G, T85S, V104L
notes: murine variable regions on human IgG1-YTE / kappa; also called Chi 99; chimeric antibody corresponding to mab199
In the case of B3, in assay [6], the half-inhibitory concentration (IC50) was 0.427 nM. In assay [7], the 50% effective concentration (EC50) worked out at 0.516 nM.

B4: hu199-33 (antibody, human IgG1, kappa, V domains shown)
VH: B2 VH with R38K, R67K, M70L
VL: B2 VL with V66G
notes: IgG1-YTE, kappa
Take B4: the IC50 in assay [6] was found to be 0.205 nM.

B5: hu199-11 (antibody, human IgG1, kappa, V domains shown)
VH: B2 VH with M70L
VL: B2 VL with S43A, Q45K, Q70D
notes: IgG1-YTE, kappa
In assay [6], B5 registered a half-inhibitory concentration (IC50) of 0.365 nM.

B6: hu199-20 (antibody, human IgG1, kappa, V domains shown)
VH: B2 VH with R38K, M48I, R67K, V68A, M70L
VL: B2 VL with S43A, Q45K, V66G, Q70D
notes: IgG1-YTE, kappa
B6 returned an IC50 in assay [6] of 0.4 nM.

B7: hu199-29 (antibody, human IgG1, kappa, V domains shown)
VH: B2 VH with R38K, R67K
VL: B2 VL with S43A, Q45K, Q70D
notes: IgG1-YTE, kappa
In turn, B7 showed an IC50 in assay [6] of 0.554 nM.

B8: hu199-35 (antibody, human IgG1, kappa, V domains shown)
VH: B2 VH with R38K, R67K, M70L
VL: B2 VL with S43A, Q45K, Q70D
notes: IgG1-YTE, kappa
B8 came in with a half-maximal inhibitory concentration (IC50) in assay [6] of 0.485 nM.

B9: hu199-17 (antibody, human IgG1, kappa, V domains shown)
VH: B2 VH with M48I, V68A, M70L
VL: B2 VL with S43A, Q45K, Q70D
notes: IgG1-YTE, kappa
In assay [6], B9 registered an IC50 of 0.611 nM.

B10: hu199-13 (antibody, human IgG1, kappa, V domains shown)
VH: B2 VH with M48I, V68A, M70L
VL: B2 VL with S43A, Q45K, V48I, V66G, Q70D
notes: IgG1-YTE, kappa
B10 displayed an IC50 in assay [6] of 0.239 nM.

B11: hu199-16 (antibody, human IgG1, kappa, V domains shown)
VH: B2 VH with M48I, V68A, M70L
VL: B2 VL with S43A, Q45K, V48I, Q70D
notes: IgG1-YTE, kappa
In assay [6], B11 gave an IC50 of 0.737 nM.

B12: hu199-25 (antibody, human IgG1, kappa, V domains shown)
VH: B2 VH with R38K, R67K
VL: B2 VL with S43A, Q45K, V48I, V66G, Q70D
notes: IgG1-YTE, kappa
B12 displayed a 50% inhibitory concentration (IC50) in assay [6] of 0.246 nM.

B13: hu199-31 (antibody, human IgG1, kappa, V domains shown)
VH: B2 VH with R38K, R67K, M70L
VL: B2 VL with S43A, Q45K, V48I, V66G, Q70D
notes: IgG1-YTE, kappa
B13 showed an IC50 in assay [6] of 0.304 nM.

B14: hu199-24 (antibody, human IgG1, kappa, V domains shown)
VH: B2 VH with R38K, M48I, R67K, V68A, M70L
VL: B2 VL
notes: IgG1-YTE, kappa
Consider B14, for which, in assay [6], the half-inhibitory concentration (IC50) turned out to be 0.496 nM.

B15: hu199-14 (antibody, human IgG1, kappa, V domains shown)
VH: B2 VH with M48I, V68A, M70L
VL: B2 VL with S43A, Q45K, V66G, Q70D
notes: IgG1-YTE, kappa
In the case of B15, in assay [6], the concentration for half-maximal inhibition (IC50) stood at 0.311 nM.

B16: hu199-26 (antibody, human IgG1, kappa, V domains shown)
VH: B2 VH with R38K, R67K
VL: B2 VL with S43A, Q45K, V66G, Q70D
notes: IgG1-YTE, kappa
As for B16, the IC50 in assay [6] is 0.365 nM.

B17: hu199-32 (antibody, human IgG1, kappa, V domains shown)
VH: B2 VH with R38K, R67K, M70L
VL: B2 VL with S43A, Q45K, V66G, Q70D
notes: IgG1-YTE, kappa
In the case of B17, the IC50 in assay [6] is 0.287 nM.

B18: hu199-15 (antibody, human IgG1, kappa, V domains shown)
VH: B2 VH with M48I, V68A, M70L
VL: B2 VL with V66G
notes: IgG1-YTE, kappa
In the case of B18, the IC50 in assay [6] is 0.287 nM.

B19: hu199-23 (antibody, human IgG1, kappa, V domains shown)
VH: B2 VH with R38K, M48I, R67K, V68A, M70L
VL: B2 VL with S43A, Q45K, Q70D
notes: IgG1-YTE, kappa
Molecule B19 displayed an IC50 in assay [6] of 0.337 nM.

B20: hu199-07 (antibody, human IgG1, kappa, V domains shown)
VH: B2 VH with M70L
VL: B2 VL with S43A, Q45K, V48I, V66G, Q70D
notes: IgG1-YTE, kappa
In turn, B20 had an IC50 in assay [6] of 0.283 nM.

B21: hu199-10 (antibody, human IgG1, kappa, V domains shown)
VH: B2 VH with M70L
VL: B2 VL with S43A, Q45K, V48I, Q70D
notes: IgG1-YTE, kappa
In assay [6], B21 came in with an IC50 of 0.391 nM.

B22: hu199-34 (antibody, human IgG1, kappa, V domains shown)
VH: B2 VH with R38K, R67K, M70L
VL: B2 VL with S43A, Q45K, V48I, Q70D
notes: IgG1-YTE, kappa
Molecule B22 returned a half-maximal inhibitory concentration (IC50) in assay [6] of 0.711 nM.

B23: hu199-12 (antibody, human IgG1, kappa, V domains shown)
VH: B2 VH with M70L
VL: B2 VL
notes: IgG1-YTE, kappa
B23 gave an IC50 in assay [6] of 0.37 nM.

B24: hu199-21 (antibody, human IgG1, kappa, V domains shown)
VH: B2 VH with R38K, M48I, R67K, V68A, M70L
VL: B2 VL with V66G
notes: IgG1-YTE, kappa
B24 yielded an IC50 in assay [6] of 0.535 nM.

B25: hu199-28 (antibody, human IgG1, kappa, V domains shown)
VH: B2 VH with R38K, R67K
VL: B2 VL with S43A, Q45K, V48I, Q70D
notes: IgG1-YTE, kappa
B25 displayed a half-maximal inhibitory concentration (IC50) in assay [6] of 0.462 nM.

B26: hu199-22 (antibody, human IgG1, kappa, V domains shown)
VH: B2 VH with R38K, M48I, R67K, V68A, M70L
VL: B2 VL with S43A, Q45K, V48I, Q70D
notes: IgG1-YTE, kappa
Take B26: the IC50 in assay [6] came to 0.345 nM.

B27: hu199-09 (antibody, human IgG1, kappa, V domains shown)
VH: B2 VH with M70L
VL: B2 VL with V66G
notes: IgG1-YTE, kappa
For B27, in assay [6], the half-inhibitory concentration (IC50) turned out to be 0.273 nM.

B28: hu199-18 (antibody, human IgG1, kappa, V domains shown)
VH: B2 VH with M48I, V68A, M70L
VL: B2 VL
notes: IgG1-YTE, kappa
Consider B28, for which, in assay [6], the half-maximal inhibitory concentration (IC50) amounted to 0.481 nM.

B29: hu199-19 (antibody, human IgG1, kappa, V domains shown)
VH: B2 VH with R38K, M48I, R67K, V68A, M70L
VL: B2 VL with S43A, Q45K, V48I, V66G, Q70D
notes: IgG1-YTE, kappa
B29: in assay [6], the IC50 is 0.658 nM.

B30: hu199-30 (antibody, human IgG1, kappa, V domains shown)
VH: B2 VH with R38K, R67K
VL: B2 VL
notes: IgG1-YTE, kappa
In turn, B30 gave an IC50 in assay [6] of 0.349 nM.

B31: hu199-27 (antibody, human IgG1, kappa, V domains shown)
VH: B2 VH with R38K, R67K
VL: B2 VL with V66G
notes: IgG1-YTE, kappa
B31 showed an IC50 in assay [6] of 0.354 nM.

B32: hu199-36 (antibody, human IgG1, kappa, V domains shown)
VH: B2 VH with R38K, R67K, M70L
VL: B2 VL
notes: IgG1-YTE, kappa
In the case of B32, the IC50 in assay [6] was found to be 0.727 nM; in assay [2], 0.227 nM; in assay [3], 0.569 nM. Besides, the “IC50 (nM), inhibition of TSLP-induced proliferation of BaF3 cells overexpressing TSLPR/IL-7R” value in assay [1] was found to be 0.477 nM. The Kd in assay [4] was found to be 0.0172 nM; in assay [5], 0.0105 nM.

Source of the values: patent US20240016931A1 (JIANGSU HENGRUI PHARMACEUTICALS, published 2024).
